Results on two substances are retold here after patent publication US20030223991A1.

Assay [1] deals with human CD200Ra (SEQ ID NO:2) (human) (UniProt Q8TD46). Briefly: cell-based or functional assay.
For assay [2], the target named is mouse CD200Ra (SEQ ID NO:6) (mouse) (UniProt Q9ES57). The assay is described as follows: cell-based or functional assay.
Chain of UniProt Q9ES57 (Q9ES57 26-326 limits assumed): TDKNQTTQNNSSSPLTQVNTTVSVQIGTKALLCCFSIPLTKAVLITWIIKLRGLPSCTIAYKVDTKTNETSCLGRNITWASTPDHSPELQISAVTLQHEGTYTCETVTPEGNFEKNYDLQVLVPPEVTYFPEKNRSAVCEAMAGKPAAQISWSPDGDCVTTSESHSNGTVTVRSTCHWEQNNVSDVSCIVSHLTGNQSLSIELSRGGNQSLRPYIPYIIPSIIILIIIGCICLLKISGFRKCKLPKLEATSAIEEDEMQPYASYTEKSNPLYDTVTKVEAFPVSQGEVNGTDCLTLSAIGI

Chain of UniProt Q8TD46 (Q8TD46 other isoform, or with tags, fused parts or gaps limits assumed): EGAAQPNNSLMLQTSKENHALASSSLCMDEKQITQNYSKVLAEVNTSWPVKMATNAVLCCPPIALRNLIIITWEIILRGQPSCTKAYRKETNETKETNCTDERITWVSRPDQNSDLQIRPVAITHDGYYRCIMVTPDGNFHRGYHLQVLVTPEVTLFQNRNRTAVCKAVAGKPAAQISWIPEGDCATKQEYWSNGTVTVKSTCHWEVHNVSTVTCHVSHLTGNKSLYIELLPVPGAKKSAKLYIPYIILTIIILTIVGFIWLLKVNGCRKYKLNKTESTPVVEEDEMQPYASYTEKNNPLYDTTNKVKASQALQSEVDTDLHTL

“huCD200-Ig (from UniProt P41217 31-232) (Fc fusion)” showed a Bioassay IC50 (inhibition of β-hexosaminidase secretion by mouse mast cells expressing human CD200Ra) in assay [1] of 0.3 nM. In assay [2], “muCD200-Ig (from UniProt O54901 31-232) (Fc fusion)” showed a Bioassay IC50 (inhibition of mast cell secretion) of 1.3 nM.
